# Assay results from PMC7138851, “Quantitative assessment of the determinant structural differences between redox-active and inactive glutaredoxins” (Nature Communications, 2020).
# Values joined by “and” are separate entries in the source; they are usually repeats but may differ in a detail not shown here. Equal values may be shown once.
# T1: HsGrx5 (Homo sapiens, UniProt Q86SX6, C122S)
# T1 construct: gene GLRX5; E. coli XL1-Blue, pQE30; N-terminal MRGS(H)6 tag; C122S in all constructs
# T1 sequence (Q86SX6 32-157 C122S): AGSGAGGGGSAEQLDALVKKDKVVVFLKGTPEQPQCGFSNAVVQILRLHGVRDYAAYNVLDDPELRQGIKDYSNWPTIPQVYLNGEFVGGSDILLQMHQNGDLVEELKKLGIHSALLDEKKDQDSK
# T2: ScGrx7 (Saccharomyces cerevisiae, UniProt P38068)
# T2 construct: gene GRX7; E. coli XL1-Blue, pQE30; N-terminal MRGS(H)6 tag
# T2 sequence (P38068 33-203): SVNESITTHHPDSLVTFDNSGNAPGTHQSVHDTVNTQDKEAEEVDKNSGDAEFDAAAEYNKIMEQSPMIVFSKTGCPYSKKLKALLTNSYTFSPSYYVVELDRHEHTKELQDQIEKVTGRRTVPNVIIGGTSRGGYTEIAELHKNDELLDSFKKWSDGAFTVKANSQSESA
# What was measured:
# HsGrx5 = molecular target: T1, HsGrx5; assay: UV/vis absorbance of purified protein; assay type: binding; conditions: as purified from E. coli; cluster type not determined here
# Cys108 [1] = molecular target: Cys108 (UniProt position 108, FSETGCPYSKK); assay: chemical modification; conditions: 23 °C, 100 mM KCl in a constant-ionic-strength three-buffer system (value not stated), 50 mM potassium acetate, 50 mM MES, 100 mM Tris, Freshly reduced (NaBH4) free enzyme, no glutathione bound
# Cys108 [2] = molecular target: Cys108 (UniProt position 108, FSKTGCPYSKK); assay: chemical modification; conditions: 23 °C, 100 mM KCl in a constant-ionic-strength three-buffer system (value not stated), 50 mM potassium acetate, 50 mM MES, 100 mM Tris, Freshly reduced (NaBH4) free enzyme, no glutathione bound
# ScGrx7 = molecular target: T2, ScGrx7; parameters: Disulfide oxidoreductase assay, steady-state kinetics, coupled NADPH consumption at 340 nm, pH 8.0, 25 °C; conditions: apparent Km at highest fixed GSH concentration; substrate; read-out: Km app(HEDS)
# Procedure: Steady-state kinetics of wild-type and mutant ScGrx7 and HsGrx5^C122S in the GSSCys and [compound left out] assays were determined spectrophotometrically by monitoring the consumption of NADPH at 340 nm and 25 °C using a thermostated Jasco V-650 UV/vis spectrophotometer[11],[19],[25]. Fresh stock solutions of NADPH, GSH, GR, and GSSCys or [compound left out] were prepared in assay buffer containing 0.1 M Tris/HCl, 1 mM EDTA, pH 8.0 before each experiment. Both assays were performed with 0.1 mM NADPH and 1 U/ml ScGR. […] NADPH, GSH, and GR were mixed in assay buffer before Grx was added and a baseline was recorded for 30 s. […] The absorbance of a reference cuvette containing all components but no Grx was measured in parallel and subtracted from the obtained Grx activity. […] NADPH, GSH, and [compound left out] were preincubated in assay buffer for 2 min before GR was added and a baseline was recorded for 30 s. […] Kinetic data were analyzed in Excel and SigmaPlot 13 by nonlinear and linear regression according to Michaelis–Menten, Lineweaver–Burk, Eadie–Hofstee, and Hanes theory[11],[19],[25].
# Cys108 [3] = molecular target: Cys108 (UniProt position 108, FSATGCPYSKK); assay: chemical modification; conditions: 23 °C (alkylation step), 25 °C (HEDS activity read-out), 100 mM KCl in a constant-ionic-strength three-buffer system, the ionic strength value is not stated, 50 mM potassium acetate, 50 mM MES, 100 mM Tris, Free enzyme, freshly reduced with a 20-fold molar excess of NaBH4, 6 µM protein
# [4] = substrate: N[C@@H](CCC(=O)N[C@@H](CS)C(=O)NCC(=O)O)C(=O)O; assay: purified protein, by the assay type; parameters: GSSCys oxidoreductase assay, GR-coupled NADPH consumption at 340 nm, apparent Km from Hanes plots; conditions: pH 8.0; 25.0 °C
# Procedure: (§1) Steady-state kinetics of wild-type and mutant ScGrx7 and HsGrx5^C122S in the GSSCys and [compound left out] assays were determined spectrophotometrically by monitoring the consumption of NADPH at 340 nm and 25 °C using a thermostated Jasco V-650 UV/vis spectrophotometer[11],[19],[25]. Fresh stock solutions of NADPH, GSH, GR, and GSSCys or [compound left out] were prepared in assay buffer containing 0.1 M Tris/HCl, 1 mM EDTA, pH 8.0 before each experiment. Both assays were performed with 0.1 mM NADPH and 1 U/ml ScGR. The following final protein concentrations were used for Y110F/H/A (5–150 nM), D144A/K (10 nM), E147A/K (10 nM), R153A/E (25–50 nM), ScGrx7^WP (20 nM), ScGrx7^loop (up to 1.4 µM), ScGrx7^WP+loop (up 2.6 µM), HsGrx5^C122S (up to 15 µM), HsGrx5^RR (up to 12 µM), HsGrx5^loop (up to 1.6 µM), and HsGrx5^RR+loop (up to 4.0 µM). For the GSSCys assays, GSH was varied between 50 µM and 1.5 mM at fixed GSSCys concentrations (25, 50, 100, and 150 µM). NADPH, GSH, and GR were mixed in assay buffer before Grx was added and a baseline was recorded for 30 s. All GSSCys assays were started by the addition of GSSCys. The absorbance of a reference cuvette containing all components but no Grx was measured in parallel and subtracted from the obtained Grx activity. For the [compound left out] assays, GSH was varied between 100 µM and 2.0 mM at fixed concentrations of [compound left out] (0.18, 0.37, 0.55, and 0.74 mM). NADPH, GSH, and [compound left out] were preincubated in assay buffer for 2 min before GR was added and a baseline was recorded for 30 s. All [compound left out] assays were started by the addition of enzyme. Kinetic data were analyzed in Excel and SigmaPlot 13 by nonlinear and linear regression according to Michaelis–Menten, Lineweaver–Burk, Eadie–Hofstee, and Hanes theory[11],[19],[25]. 29 Supplementary Figure 15 Supplementary Figure 15 | GSSCys assay steady-state kinetics of HsGrx5loop and HsGrx5RR+loop . […] The activities of HsGrx5 and HsGrx5RR were similar to the NADPH consumption of negative controls without enzyme and could not be analyzed.
# [5] = substrate: N[C@@H](CCC(=O)N[C@@H](CSSC[C@H](N)C(=O)O)C(=O)NCC(=O)O)C(=O)O; assay: purified protein, by the assay type; parameters: GSSCys oxidoreductase assay, GR-coupled NADPH consumption at 340 nm, apparent Km from Hanes plots; conditions: pH 8.0; 25.0 °C
# Procedure: as §1
molecule,measurement,setting,value
[S]1[Fe][S][Fe]1 [iron–sulfur cluster],UV/vis absorbance of purified protein,HsGrx5,Freshly purified recombinant wild-type HsGrx5 contained an iron–sulfur cluster
Glutaredoxin 7 (ScGrx7) K105E (Saccharomyces cerevisiae; K105E),pKa,Cys108 [1],5.0 ± 0.1
"Glutaredoxin 7 (ScGrx7), wild type (Saccharomyces cerevisiae)",pKa,Cys108 [2],4.3 ± 0.1 and 4.48
OCCSSCCO [HEDS],Km,ScGrx7,820 ± 190 µM
Glutaredoxin 7 (ScGrx7) K105A (Saccharomyces cerevisiae; K105A),pKa,Cys108 [3],4.4 ± 0.1
"HsGrx5 (Homo sapiens; C122S/DEL60-64/P65T/Q66G) (protein, E. coli XL1-Blue, pQE30; N-terminal MRGS(H)6 tag; C122S in all constructs) AGSGAGGGGSAEQLDALVKKDKVVVFLKTGCGFSNAVVQILRLHGVRDYAAYNVLDDPELRQGIKDYSNWPTIPQVYLNGEFVGGSDILLQMHQNGDLVEELKKLGIHSALLDEKKDQDSK",kcat,[4],0.18 s⁻¹ and 0.27 s⁻¹
same,kcat/Km,[4],3900 M⁻¹ s⁻¹ and 4800 M⁻¹ s⁻¹
same,kcat/Km,[5],1500 M⁻¹ s⁻¹ and 1600 M⁻¹ s⁻¹
